Paper PMC11031135, “Chemo-enzymatic synthesis of tetrasaccharide linker peptides to study the divergent step in glycosaminoglycan biosynthesis” (Glycobiology, 2024)

B1: human β4GalT7, residues 81-327 (enzyme, UniProt Q9UBV7 81-327, looked up)
chain: PEHWEEDASWGPHRLAVLVPFRERFEELLVFVPHMRRFLSRKKIRHHIYVLNQVDHFRFNRAALINVGFLESSNSTDYIAMHDVDLLPLNEELDYGFPEAGPFHVASPELHPLYHYKTYVGGILLLSKQHYRLCNGMSNRFWGWGREDDEFYRRIKGAGLQLFRPSGITTGYKTFRHLHDPAWRKRDQKRIAAQKQEQFKVDREGGLNTVKYHVASRTALSVGGAPCTVLNIMLDCDKTATPWCTFS
notes: human beta-1,4-galactosyltransferase 7, UniProt Q9UBV7, residues 81-327, without the N-terminal transmembrane anchoring helix; Made from the pETM30 vector; The 6xHis-GST tag was removed by TEV protease; The printed monomer mass is 29 kDa; also called β4GalT7_81-327; source: E. coli Rosetta(DE3)pLysS, purified (IMAC, TEV cleavage, second IMAC, Superdex 200); not shown: 6xHistidine, N-terminal, …
B2: human GlcAT-1, residues 76-335 (enzyme, UniProt O94766 76-335, looked up)
chain: TIYVVTPTYARLVQKAELVRLSQTLSLVPRLHWLLVEDAEGPTPLVSGLLAASGLLFTHLVVLTPKAQRLREGEPGWVHPRGVEQRNKALDWLRGRGGAVGGEKDPPPPGTQGVVYFADDDNTYSRELFEEMRWTRGVSVWPVGLVGGLRFEGPQVQDGRVVGFHTAWEPSRPFPVDMAGFAVALPLLLDKPNAQFDSTAPRGHLESSLLSHLVDPKDLEPRAANCTRVLVWHTRTEKPKMKQEEQLQRQGRGSDPAIEV
notes: human glucuronyltransferase GlcAT-1, UniProt O94766, residues 76-335, without the N-terminal transmembrane anchoring helix; Made from the pETM30 vector; The 6xHis-GST tag was removed by TEV protease; The printed monomer mass is 29 kDa; also called GlcAT-1_76-335; source: E. coli BL21(DE3)pLysS, purified (IMAC, TEV cleavage, flow-through of the second IMAC); not shown: 6xHistidine, N-terminal, …
B3: SUMO-β3GalT6 fusion protein (human β3GalT6 residues 53-329) (enzyme, UniProt Q96L58 53-329, looked up)
chain: ARAAAFLAVLVASAPRAAERRSVIRSTWLARRGAPGDVWARFAVGTAGLGAEERRALEREQARHGDLLLLPALRDAYENLTAKVLAMLAWLDEHVAFEFVLKADDDSFARLDALLAELRAREPARRRRLYWGFFSGRGRVKPGGRWREAAWQLCDYYLPYALGGGYVLSADLVHYLRLSRDYLRAWHSEDVSLGAWLAPVDVQREHDPRFDTEYRSRGCSNQYLVTHKQSLEDMLEKHATLAREGRLCKREVQLRLSYVYDWSAPPSQCCQRREGIP
notes: human beta-1,3-galactosyltransferase 6, UniProt Q96L58, residues 53-329, without the N-terminal transmembrane anchoring helix; The fusion was not cleaved; The printed monomer mass is 45 kDa; also called β3GalT6_53-329; source: FreeStyle 293-F cells, transfected, culture supernatant, purified (one-step IMAC, dialysis); not shown: SUMO, N-terminal, kept; 6xHistidine, N-terminal, kept

Molecular target: the molecule itself
Assay: mass photometry; Refeyn OneMP; final protein concentration between 50 nM and 125 nM; XylT1 and SUMO-β3GalT6 in Tris buffer A (50 mM Tris pH 7.4, 250 mM NaCl) with 5% glycerol, β4GalT7 in S200 buffer (25 mM MES pH 6.5, 200 mM NaCl, 5% glycerol), GlcAT-1 in HEPES buffer; duplicates

Protein | stoichiometry N
B1 | 2
B2 | 2
B3 | 2
